Test results published in patent publication US20100075908A1 (published 2010).
Non-standard residues stand in square brackets, D forms with d. No end group written: not given here.

B1: fibrinogen (ligand)
chain 1: ADSGEGDFLAEGGGVRGPRVVERHQSACKDSDWPFCSDEDWNYKCPSGCRMKGLIDEVNQDFTNRINKLKNSLFEYQKNNKDSHSLTTNIMEILRGDFSSANNRDNTYNRVSEDLRSRIEVLKRKVIEKVQHIQLLQKNVRAQLVDMKRLEVDIDIKIRSCRGSCSRALAREVDLKDYEDQQKQLEQVIAKDLLPSRDRQHLPLIKMKPVPDLVPGNFKSQLQKVPPEWKALTDMPQMRMELERPGGNEITRGGSTSYGTGSETESPRNPSSAGSWNSGSSGPGSTGNRNPGSSGTGGTATWKPGSSGPGSTGSWNSGSSGTGSTGNQNPGSPRPGSTGTWNPGSSERGSAGHWTSESSVSGSTGQWHSESGSFRPDSPGSGNARPNNPDWGTFEEVSGNVSPGTRREYHTEKLVTSKGDKELRTGKEKVTSGSTTTTRRSCSKTVTKTVIGPDGHKEVTKEVVTSEDGSDCPEAMDLGTLSGIGTLDGFRHRHPDEAAFFDTASTGKTFPGFFSPMLGEFVSETESRGSESGIFTNTKESSSHHPGIAEFPSRGKSSSYSKQFTSSTSYNRGDSTFESKSYKMADEAGSEADHEGTHSTKRGHAKSRPV
chain 2: QGVNDNEEGFFSARGHRPLDKKREEAPSLRPAPPPISGGGYRARPAKAAATQKKVERKAPDAGGCLHADPDLGVLCPTGCQLQEALLQQERPIRNSVDELNNNVEAVSQTSSSSFQYMYLLKDLWQKRQKQVKDNENVVNEYSSELEKHQLYIDETVNSNIPTNLRVLRSILENLRSKIQKLESDVSAQMEYCRTPCTVSCNIPVVSGKECEEIIRKGGETSEMYLIQPDSSVKPYRVYCDMNTENGGWTVIQNRQDGSVDFGRKWDPYKQGFGNVATNTDGKNYCGLPGEYWLGNDKISQLTRMGPTELLIEMEDWKGDKVKAHYGGFTVQNEANKYQISVNKYRGTAGNALMDGASQLMGENRTMTIHNGMFFSTYDRDNDGWLTSDPRKQCSKEDGGGWWYNRCHAANPNGRYYWGGQYTWDMAKHGTDDGVVWMNWKGSWYSMRKMSMKIRPFFPQQ
chain 3: YVATRDNCCILDERFGSYCPTTCGIADFLSTYQTKVDKDLQSLEDILHQVENKTSEVKQLIKAIQLTYNPDESSKPNMIDAATLKSRKMLEEIMKYEASILTHDSSIRYLQEIYNSNNQKIVNLKEKVAQLEAQCQEPCKDTVQIHDITGKDCQDIANKGAKQSGLYFIKPLKANQQFLVYCEIDGSGNGWTVFQKRLDGSVDFKKNWIQYKEGFGHLSPTGTTEFWLGNEKIHLISTQSAIPYALRVELEDWNGRTSTADYAMFKVGPEADKYRLTYAYFAGGDAGDAFDGFDFGDDPSDKFFTSHNGMQFSTWDNDNDKFEGNCAEQDGSGWWMNKCHAGHLNGVYYQGGTYSKASTPNGYDNGIIWATWKTRWYSMKKTTMKIIPFNRLTIGEGQQHHLGGAKQAGDV
notes: Soluble plasma fibrinogen flowed over the Biacore chip; also called free fibrinogen

Key:
GPIb on human platelets [1] = molecular target: T1, GPIb on human platelets (human, UniProt P07359 17-652; P13224 26-206); assay: conclusion from inhibition of vWf binding to platelets, flow cytometry
T1 construct: whole, on cells; also called platelet GPIb

fibrinogen = molecular target: B1; assay: SPR (Biacore), peptide-PEG-biotin on streptavidin chip, fibrinogen in flow, Langmuir analysis
Description: In this case, peptides known to interfere with fibrinogen-GPIIbIIIa interaction were synthesized, and coupled to the end of a long (3400 MW) PEG molecule whose other end was attached to biotin, as illustrated schematically in FIG. 7. As is known in the art, fibrinogen is a soluble protein in the blood plasma essential for clotting of blood which the enzyme thrombin converts into the insoluble protein fibrin. As shown schematically in FIG. 7, the biotin molecule was used to tether down the peptide-PEG onto a streptavidin-modified Biacore chip. This allowed the GPIIbIIIa mimicking peptide to be hanging off the free end of the PEG.
By allowing free fibrinogen to flow past the peptide, the binding kinetics (i.e., the “on/off rate”) between fibrinogen and the peptides were measured. Then, the fibrinogen was released from the peptide. Using several fibrinogen concentrations, it was possible to measure the KD of the binding interaction between the peptide and the fibrinogen.

GPIb on human platelets [2] = molecular target: T1, GPIb on human platelets; assay: cell-based or functional assay
wild-type GPIIbIIIa = molecular target: T2, wild-type GPIIbIIIa (UniProt P08514 32-1039; P05106 27-788, limits assumed); assay: not stated (comparison value given with the SPR results)
T2 construct: also called wild-type GPIIaIIIb (so in the source); integrin alphaIIbbeta3

GPIb on human platelets [3] = molecular target: T1, GPIb on human platelets; assay: inhibition of vWf binding to platelets in PRP, flow cytometry (FITC anti-human vWf)
Procedure: In order to prepare human platelets for testing, as approved by Canadian Blood Services' Ethics Board, samples of whole blood were drawn from healthy, consenting donors into 2.7-4.0 mL citrated tubes (BD, USA). Platelet rich plasma (PRP) was prepared from whole blood by centrifugation in a Beckman (CS-6R) bench-top centrifuge (r=203.57 mm, Beckman Coulter, USA) 164×g for 15 minutes. PRP from a number of unrelated donors were evaluated on an Adiva 120 Hematology Analyzer (Bayer, Canada) and standardized to a concentration of 300×10⁹ platelets/L in HEPES buffered saline (HBS, 10 mM HEPES, 150 mM NaCl, pH 7.4).
Thereafter the samples were diluted and fixed with 1.0 mL 0.2% formolsaline (0.2% formaldehyde, 150 mM NaCl, pH 7.20) before analysis on a FACS Canto flow cytometer (BD, USA).

[4] = molecular target: von Willebrand factor (vWf) (human) (UniProt P04275); assay: cell-based or functional assay

| Aggregometry % Aggregation on Activation (GPIb on human platelets [2]) | Peptide Concentration at Ic50 (GPIb on human platelets [3]) | Binder | further results |
| --- | --- | --- | --- |
| – | – | SHAYIGLKDR [SHAYIGLKDR (SEQ ID NO:8)] | binding result (GPIb on human platelets [1]): binds |
| – | – | APLHK (also: coupled to PEG 3400 carrying biotin, coupled end not given here, also called A-peptide 1) [GPIIbIIIa mimotope peptide 1 (APLHK)] | Kd (fibrinogen): 12.5 µM |
| 5% | – | CGGGGGGSHAYIGLKDR (other, also: coupled via vinyl sulfone to 500 kDa hyperbranched polyglycerol (HPG), about 100 peptides per HPG) [L100 (HPG conjugate with 100 L-peptides per HPG)] | – |
| 78% | – | [dC]GGGGGG[dR][dD][dK][dL]G[dI][dY][dA][dH][dS] (not fully specified) [D-… (D-retro peptide; SEQ ID NO:12)] | – |
| – | – | B1 | Kd (wild-type GPIIbIIIa): 0.103 µM |
| 5% | 48 µM | CGGGGGGSHAYIGLKDR (L-amino acids; free peptide) [L-CGGGGGGSHAYIGLKDR (L-peptide)] | IC50 (GPIb on human platelets [3]): 48 µM |
| – | – | EHIPA (also: coupled to PEG 3400 carrying biotin, coupled end not given here, also called B-peptide 2) [GPIIbIIIa mimotope peptide 2 (EHIPA)] | Kd (fibrinogen): 0.334 µM |
| – | – | [dR][dS][dA][dR][dM][dQ][dV][dC][dW][dN][dA][dF][dK][dN][dR] [D-pep3 (…)] | % agglutination of washed platelets at 10 minutes, ristocetin, aggregometry, 0.1 mg/mL D-pep3 (buffer 66%, BSA 55%) [4]: 69%; % agglutination of washed platelets at 10 minutes, ristocetin, aggregometry, 0.25 mg/mL D-pep3 (buffer 66%, BSA 55%) [4]: 28%; % agglutination of washed platelets at 10 minutes, ristocetin, aggregometry, 0.5 mg/mL D-pep3 (buffer 66%, BSA 55%) [4]: 13% |
| 5% | 41 µM | CGGGGGGRDKLGIYAHS (other, also: coupled through vinyl sulfone to 500 kDa hyperbranched polyglycerol, about 10 peptides per HPG, Peptide-polymer conjugate) [LR10 (HPG conjugate with 10 L-retro peptides per HPG)] | – |
| 5% | – | CGGGGGGSHAYIGLKDR (other, also: coupled through vinyl sulfone to 500 kDa hyperbranched polyglycerol, about 10 peptides per HPG) [L10 (HPG conjugate with 10 L-peptides per HPG)] | – |
| 5% | 22 µM | CGGGGGGRDKLGIYAHS (other, also: coupled via vinyl sulfone to 500 kDa hyperbranched polyglycerol (HPG), about 100 peptides per HPG, Peptide-polymer conjugate) [LR100 (HPG conjugate with 100 L-retro peptides per HPG)] | – |
| 5% | 34 µM | CGGGGGGRDKLGIYAHS (Linker CGGGGGG followed by the reversed mimotope; L-amino acids; free peptide; also called LR-pep; LR-peptide) [L-CGGGGGGRDKLGIYAHS (L-retro peptide)] | IC50 (GPIb on human platelets [3]): 34 µM |
